Measured values published in JP2005325133A (dated 2005).
cellulose membrane = not defined here

Experiments:
[1] = target: T1, 13-mer peptide, amino acids 61-73 of HLA-DR β chain (DRB1*15011), SEQ ID NO 82 (human, reading uncertain); experiment: SPOT peptide membrane
T1 construct: SPOT peptide on cellulose membrane (JERINI); also called 配列番号82; 61番目〜73番目
T1 peptide: Ac-WNSQKDILEQARA-{cellulose membrane}

[2] = target: T2, 13-mer peptide, amino acids 65-77 of HLA-DR β chain (DRB1*15011), SEQ ID NO 84 (human, reading uncertain); experiment: SPOT peptide membrane, chemiluminescence (LumiImager)
T2 construct: SPOT peptide; also called 配列番号84; 65番目〜77番目
T2 peptide: Ac-KDILEQARAAVDT-{cellulose membrane}

[3] = target: T3, 13-mer peptide, amino acids 63-75 of HLA-DR β chain (DRB1*15011), SEQ ID NO 83 (human, reading uncertain); experiment: as above
T3 construct: SPOT peptide; also called 配列番号83; 63番目〜75番目
T3 peptide: Ac-SQKDILEQARAAV-{cellulose membrane}

SEQ ID NO 27 = target: T4, SEQ ID NO 27 (human); experiment: peptide spot blot, antibody 1 μg/mL, chemiluminescence (LAS2000)
T4 construct: One of 16 peptides covering the polymorphic variants of HLA-DR β chain 61-73; also called 配列番号27
T4 peptide: WNSQKDFLEQARA

SEQ ID NO 26 = target: T5, SEQ ID NO 26 (human); experiment: as above
T5 construct: One of 16 peptides covering the polymorphic variants of HLA-DR β chain 61-73; also called 配列番号26
T5 peptide: WNSQKDFLEDERA

SEQ ID NO 47 = target: T6, SEQ ID NO 47 (human); experiment: as above
T6 construct: also called 配列番号47
T6 peptide: WNSAKDLLEQRRA

SEQ ID NO 38 = target: T7, SEQ ID NO 38 (human); experiment: as above
T7 construct: One of 16 peptides covering the polymorphic variants of HLA-DR β chain 61-73; also called 配列番号38
T7 peptide: WNSQKDLLERRRA

SEQ ID NO 45 = target: T8, SEQ ID NO 45 (human); experiment: as above
T8 construct: also called 配列番号45
T8 peptide: WASQKDLLEQRRA

SEQ ID NO 40 = target: T9, SEQ ID NO 40 (human); experiment: as above
T9 construct: also called 配列番号40
T9 peptide: WNSQKDALEQRRA

SEQ ID NO 36 = target: T10, SEQ ID NO 36 (human); experiment: as above
T10 construct: One of 16 peptides covering the polymorphic variants of HLA-DR β chain 61-73; also called 配列番号36
T10 peptide: WNSQKDLLEQKRG

SEQ ID NO 46 = target: T11, SEQ ID NO 46 (human); experiment: as above
T11 construct: also called 配列番号46
T11 peptide: WNAQKDLLEQRRA

SEQ ID NO 30 = target: T12, SEQ ID NO 30 (human); experiment: as above
T12 construct: One of 16 peptides covering the polymorphic variants of HLA-DR β chain 61-73; also called 配列番号30
T12 peptide: WNSQKDILEDRRA

SEQ ID NO 35 = target: T13, SEQ ID NO 35 (human); experiment: as above
T13 construct: One of 16 peptides covering the polymorphic variants of HLA-DR β chain 61-73; also called 配列番号35
T13 peptide: WNSQKDLLEQARA

SEQ ID NO 34 = target: T14, SEQ ID NO 34 (human); experiment: as above
T14 construct: One of 16 peptides covering the polymorphic variants of HLA-DR β chain 61-73; also called 配列番号34
T14 peptide: WNSQKDLLEQRRA

SEQ ID NO 28 = target: T15, SEQ ID NO 28 (human); experiment: as above
T15 construct: One of 16 peptides covering the polymorphic variants of HLA-DR β chain 61-73; also called 配列番号28
T15 peptide: WNSQKDILEDERA

SEQ ID NO 43 = target: T16, SEQ ID NO 43 (human); experiment: as above
T16 construct: also called 配列番号43
T16 peptide: WNSQKDLLEQRRG

SEQ ID NO 39 = target: T17, SEQ ID NO 39 (human); experiment: as above
T17 construct: One of 16 peptides covering the polymorphic variants of HLA-DR β chain 61-73; also called 配列番号39
T17 peptide: WNSQKDLLEDERA

SEQ ID NO 24 = target: T18, SEQ ID NO 24 (human); experiment: as above
T18 construct: One of 16 peptides covering the polymorphic variants of HLA-DR β chain 61-73; also called 配列番号24
T18 peptide: WNSQKDFLEDRRA

SEQ ID NO 33 = target: T19, SEQ ID NO 33 (human); experiment: as above
T19 construct: One of 16 peptides covering the polymorphic variants of HLA-DR β chain 61-73; also called 配列番号33
T19 peptide: WNSQKDILEQARA

SEQ ID NO 44 = target: T20, SEQ ID NO 44 (human); experiment: as above
T20 construct: also called 配列番号44
T20 peptide: ANSQKDLLEQRRA

SEQ ID NO 29 = target: T21, SEQ ID NO 29 (human); experiment: as above
T21 construct: One of 16 peptides covering the polymorphic variants of HLA-DR β chain 61-73; also called 配列番号29
T21 peptide: WNSQKDILEQKRG

SEQ ID NO 32 = target: T22, SEQ ID NO 32 (human); experiment: as above
T22 construct: One of 16 peptides covering the polymorphic variants of HLA-DR β chain 61-73; also called 配列番号32
T22 peptide: WNSQKDILEDKRA

SEQ ID NO 41 = target: T23, SEQ ID NO 41 (human); experiment: as above
T23 construct: also called 配列番号41
T23 peptide: WNSQKDLLEARRA

SEQ ID NO 37 = target: T24, SEQ ID NO 37 (human); experiment: as above
T24 construct: One of 16 peptides covering the polymorphic variants of HLA-DR β chain 61-73; also called 配列番号37
T24 peptide: WNSQKDLLEDRRA

SEQ ID NO 25 = target: T25, SEQ ID NO 25 (human); experiment: as above
T25 construct: One of 16 peptides covering the polymorphic variants of HLA-DR β chain 61-73; also called 配列番号25
T25 peptide: WNSQKDFLERRRA

SEQ ID NO 42 = target: T26, SEQ ID NO 42 (human); experiment: as above
T26 construct: also called 配列番号42
T26 peptide: WNSQKDLLEQARA

SEQ ID NO 31 = target: T27, SEQ ID NO 31 (human); experiment: as above
T27 construct: One of 16 peptides covering the polymorphic variants of HLA-DR β chain 61-73; also called 配列番号31
T27 peptide: WNSQKDILEDRRG

[4] = target: T28, HLA-DR DRB1*15011/DRA*0101 forcibly expressed on L cells (ATCC CCL-1) (human, UniProt P01903 26-254; P01911 30-266); experiment: flow cytometry on transfected L cells
T28 construct: whole, on cells

SEQ ID NO 51 = target: T29, SEQ ID NO 51 (human); experiment: peptide spot blot, chemiluminescence (LAS2000)
T29 construct: also called 配列番号51
T29 peptide: WNSQKDLLEQRAA

SEQ ID NO 48 = target: T30, SEQ ID NO 48 (human); experiment: peptide spot blot, chemiluminescence (LAS2000)
T30 construct: also called 配列番号48
T30 peptide: WNSQADLLEQRRA

SEQ ID NO 49 = target: T31, SEQ ID NO 49 (human); experiment: peptide spot blot, chemiluminescence (LAS2000)
T31 construct: also called 配列番号49
T31 peptide: WNSQKALLEQRRA

SEQ ID NO 50 = target: T32, SEQ ID NO 50 (human); experiment: peptide spot blot, chemiluminescence (LAS2000)
T32 construct: also called 配列番号50
T32 peptide: WNSQKDLLAQRRA

[5] = target: T1, 13-mer peptide, amino acids 61-73 of …; experiment: SPOT peptide membrane, chemiluminescence (LumiImager)

B1: human anti-HLA-DR monoclonal antibody HD4 (hybridoma HD4, FERM BP-7771) (antibody, V domains shown)
VH: EVQLLESGGGLVQPGGSLRLSCAASGFTFSSYAMTWVRQAPGKGLEWVSGISGGGDSTYYADSVKGRFTISRDNSKNTLYLQMNSLRAEDTAVYYCARDHGSGSYYPYWFDYWGQGTLVTVSS
VL: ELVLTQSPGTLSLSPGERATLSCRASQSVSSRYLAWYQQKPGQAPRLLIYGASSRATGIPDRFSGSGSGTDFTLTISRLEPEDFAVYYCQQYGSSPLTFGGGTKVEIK
notes: Human IgG with kappa light chain from a KM mouse hybridoma
[1]
  binding result: binds
[2]
  binding result: binds
[3]
  binding result: binds

B2: human anti-HLA-DR monoclonal antibody HD8 (hybridoma HD8, FERM BP-7773) (antibody, V domains shown)
VH: QVQLQHSGPGLVKPSQTLSLTCAISGDSVSSNSASWNWIRQSPSRGLEWLGRTYYRSKWYNDYAVSVKSRIVINPDTSKNQFSLQLNSVTPEDTAVYYCARENFYGSETCHKKYYCYGMDVWGQGTTVTVSS
VL: AIQLTQSPSSLSASVGDRVTITCRASQGISSALAWYQQKPGKAPKLLIYDASSLESGVPSRFSGSGSGTDFTLTISSLQPEDFATYYCQQFNSFPLTFGGGTKVEIK
notes: as for B1
SEQ ID NO 27
  binding result: binds
SEQ ID NO 26
  binding result: binds
SEQ ID NO 47
  binding result: binds
SEQ ID NO 38
  binding result: binds
SEQ ID NO 45
  binding result: binds
SEQ ID NO 40
  binding result: binds
SEQ ID NO 36
  binding result: binds
SEQ ID NO 46
  binding result: binds
SEQ ID NO 30
  binding result: binds
SEQ ID NO 35
  binding result: binds
SEQ ID NO 34
  binding result: binds
SEQ ID NO 28
  binding result: binds
SEQ ID NO 43
  binding result: binds
SEQ ID NO 39
  binding result: binds
SEQ ID NO 24
  binding result: binds
SEQ ID NO 33
  binding result: binds
SEQ ID NO 44
  binding result: binds
SEQ ID NO 29
  binding result: binds
SEQ ID NO 32
  binding result: binds
SEQ ID NO 41
  binding result: binds
SEQ ID NO 37
  binding result: binds
SEQ ID NO 25
  binding result: binds
SEQ ID NO 42
  binding result: binds
SEQ ID NO 31
  binding result: binds
[4]
  binding result: binds
SEQ ID NO 51
  binding result: no binding (tested: 1μg/mL)
SEQ ID NO 48
  binding result: no binding (tested: 1μg/mL)
SEQ ID NO 49
  binding result: no binding (tested: 1μg/mL)
SEQ ID NO 50
  binding result: no binding (tested: 1μg/mL)
[2]
  binding result: binds
[3]
  binding result: binds
[5]
  binding result: binds
